Results on one substance are retold here after article PMC12446779, “Structural basis of transglucosylation in dextran dextrinase, a homolog of anomer-inverting GH15 glucoside hydrolases” (The Journal of Biological Chemistry, 2025).

As usually defined, the stoichiometry N is the number of molecules, sites or subunits per partner or assembly.

The target in the assay is Gluconobacter oxydans dextran dextrinase Δ382C (Met1–Ser902) (Gluconobacter oxydans). Put plainly: SEC; gel filtration of purified Δ382C (Fig. S8); conditions not told in the text shown. A general note: Size exclusion chromatography separates by hydrodynamic size, large species first.

Turning to “Gluconobacter oxydans dextran dextrinase Δ382C (Met1–Ser902) (enzyme)”, the stoichiometry N is 2.
